Results from patent US20210130436A1 (published 2021).

Legend:
[1] = target: T1, human PD-L1, full-length, on CHO cells (human, UniProt Q9NZQ7 19-290); experiment: flow cytometry, CHO/PD-L1 cells; MFI relative to WT CD80 ECD-Fc
T1 construct: also called huPD-L1; CD274

[2] = target: T1, human PD-L1, full-length, on CHO cells; experiment: flow cytometry; PD-L1 MFI over CD28 MFI
[3] = target: T2, human CTLA4 (CTLA-4), full-length, on CHO cells (human, UniProt P16410 36-223); experiment: flow cytometry, CHO/CTLA4 cells; MFI relative to WT CD80 ECD-Fc
T2 construct: also called huCTLA4

[4] = target: T3, CD28 endogenously expressed on Jurkat/IL2 reporter cells (human, UniProt P10747 19-220); experiment: flow cytometry, Jurkat cells (CD28); MFI relative to WT CD80 ECD-Fc
T3 construct: also called Jurkats (CD28)

[5] = target: T2, human CTLA4 (CTLA-4), full-length, on …; experiment: flow cytometry, CHO cells stably expressing CTLA4
[6] = target: T3, CD28 endogenously expressed on …; experiment: flow cytometry, Jurkat cells (CD28)
[7] = target: T1, human PD-L1, full-length, on CHO cells; experiment: flow cytometry, CHO cells stably expressing PD-L1

T1 sequence (Q9NZQ7 19-290): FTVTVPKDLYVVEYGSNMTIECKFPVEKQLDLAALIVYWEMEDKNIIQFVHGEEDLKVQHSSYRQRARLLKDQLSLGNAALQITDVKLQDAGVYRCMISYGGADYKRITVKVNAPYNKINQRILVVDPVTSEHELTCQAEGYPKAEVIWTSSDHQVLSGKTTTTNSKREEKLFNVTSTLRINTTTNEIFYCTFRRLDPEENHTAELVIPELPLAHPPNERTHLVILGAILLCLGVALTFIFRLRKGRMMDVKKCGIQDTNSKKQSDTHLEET
T2 sequence (P16410 36-223): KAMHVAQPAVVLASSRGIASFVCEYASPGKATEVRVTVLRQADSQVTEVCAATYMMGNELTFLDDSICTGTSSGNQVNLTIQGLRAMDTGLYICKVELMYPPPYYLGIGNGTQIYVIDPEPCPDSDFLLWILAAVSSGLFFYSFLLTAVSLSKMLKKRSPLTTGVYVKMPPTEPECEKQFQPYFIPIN

Binder | Fold change to WT CD80 [1] | Ratio of PDL1:CD28 [2] | Fold change to WT CD80 [3] | Fold change to WT CD80 [4] | MFI at 33.3 nM [5] | MFI at 33.3 nM [6] | MFI at 33.3 nM [7]
variant CD80 IgV-Fc D46V/L85Q (Fc fusion, not shown: small tags and cut ends; a dimerising Fc or GST) VIHVTKEVKEVATLSCGHNVSVEELAQTRIYWQKEKKMVLTMMSGVMNIWPEYKNRTIFDITNNLSIVILALRPSDEGTYECVVQKYEKDAFKREHLAEVTLSVKAD | 17.2 fold | 16.8 ratio | 1 fold | 0.2 fold | 41900 MFI | 131 MFI | 2200 MFI
variant CD80 IgV-Fc E35D/D46V/M47L/V68M/L85Q (Fc fusion, not shown: small tags and cut ends; a dimerising Fc or GST) VIHVTKEVKEVATLSCGHNVSVEELAQTRIYWQKDKKMVLTMMSGVLNIWPEYKNRTIFDITNNLSIMILALRPSDEGTYECVVQKYEKDAFKREHLAEVTLSVKAD | 222 fold | 61.2 ratio | 0.6 fold | 0.7 fold | 26200 MFI | 464 MFI | 28400 MFI
variant CD80 IgV-Fc K89N (Fc fusion, not shown: small tags and cut ends; a dimerising Fc or GST) VIHVTKEVKEVATLSCGHNVSVEELAQTRIYWQKEKKMVLTMMSGDMNIWPEYKNRTIFDITNNLSIVILALRPSDEGTYECVVLKYENDAFKREHLAEVTLSVKAD | 0.4 fold | 0.9 ratio | 0 fold | 0.1 fold | 944 MFI | 56.3 MFI | 52.8 MFI
variant CD80 IgV-Fc E35D/M47V (Fc fusion, not shown: small tags and cut ends; a dimerising Fc or GST) VIHVTKEVKEVATLSCGHNVSVEELAQTRIYWQKDKKMVLTMMSGDVNIWPEYKNRTIFDITNNLSIVILALRPSDEGTYECVVLKYEKDAFKREHLAEVTLSVKAD | 53.1 fold | 13.6 ratio | 1.1 fold | 0.7 fold | 44600 MFI | 501 MFI | 6800 MFI
variant CD80 IgV-Fc E35D/V68M/L85Q (Fc fusion, not shown: small tags and cut ends; a dimerising Fc or GST) VIHVTKEVKEVATLSCGHNVSVEELAQTRIYWQKDKKMVLTMMSGDMNIWPEYKNRTIFDITNNLSIMILALRPSDEGTYECVVQKYEKDAFKREHLAEVTLSVKAD | 46.6 fold | 78.4 ratio | 1.1 fold | 0.1 fold | 42800 MFI | 76.2 MFI | 5970 MFI
variant CD80 IgV-Fc E35D/M47L (Fc fusion, not shown: small tags and cut ends; a dimerising Fc or GST) VIHVTKEVKEVATLSCGHNVSVEELAQTRIYWQKDKKMVLTMMSGDLNIWPEYKNRTIFDITNNLSIVILALRPSDEGTYECVVLKYEKDAFKREHLAEVTLSVKAD | 58.8 fold | 18.3 ratio | 1.2 fold | 0.6 fold | 48000 MFI | 411 MFI | 7530 MFI
variant CD80 IgV-Fc M47L/V68M/L85Q (Fc fusion, not shown: small tags and cut ends; a dimerising Fc or GST) VIHVTKEVKEVATLSCGHNVSVEELAQTRIYWQKEKKMVLTMMSGDLNIWPEYKNRTIFDITNNLSIMILALRPSDEGTYECVVQKYEKDAFKREHLAEVTLSVKAD | 31.6 fold | 66.3 ratio | 0.3 fold | 0.1 fold | 11100 MFI | 60.9 MFI | 4040 MFI
variant CD80 IgV-Fc E35D/D46V/M47L/L85Q (Fc fusion, not shown: small tags and cut ends; a dimerising Fc or GST) VIHVTKEVKEVATLSCGHNVSVEELAQTRIYWQKDKKMVLTMMSGVLNIWPEYKNRTIFDITNNLSIVILALRPSDEGTYECVVQKYEKDAFKREHLAEVTLSVKAD | 58.8 fold | 28.1 ratio | 0.9 fold | 0.4 fold | 38200 MFI | 268 MFI | 7520 MFI
variant CD80 IgV-Fc E35D/M47L/L85Q (Fc fusion, not shown: small tags and cut ends; a dimerising Fc or GST) VIHVTKEVKEVATLSCGHNVSVEELAQTRIYWQKDKKMVLTMMSGDLNIWPEYKNRTIFDITNNLSIVILALRPSDEGTYECVVQKYEKDAFKREHLAEVTLSVKAD | 47.6 fold | 132 ratio | 0.3 fold | 0.1 fold | 12900 MFI | 46.3 MFI | 6100 MFI
variant CD80 IgV-Fc M47V/K89N (Fc fusion, not shown: small tags and cut ends; a dimerising Fc or GST) VIHVTKEVKEVATLSCGHNVSVEELAQTRIYWQKEKKMVLTMMSGDVNIWPEYKNRTIFDITNNLSIVILALRPSDEGTYECVVLKYENDAFKREHLAEVTLSVKAD | 4.9 fold | 3.2 ratio | 0.8 fold | 0.3 fold | 32400 MFI | 197 MFI | 622 MFI
variant CD80 IgV-Fc E35D/M47L/V68M/L85Q (Fc fusion, not shown: small tags and cut ends; a dimerising Fc or GST) VIHVTKEVKEVATLSCGHNVSVEELAQTRIYWQKDKKMVLTMMSGDLNIWPEYKNRTIFDITNNLSIMILALRPSDEGTYECVVQKYEKDAFKREHLAEVTLSVKAD | 120 fold | 96.3 ratio | 0.7 fold | 0.2 fold | 28100 MFI | 159 MFI | 15300 MFI
variant CD80 IgV-Fc D46V/M47L/L85Q (Fc fusion, not shown: small tags and cut ends; a dimerising Fc or GST) VIHVTKEVKEVATLSCGHNVSVEELAQTRIYWQKEKKMVLTMMSGVLNIWPEYKNRTIFDITNNLSIVILALRPSDEGTYECVVQKYEKDAFKREHLAEVTLSVKAD | 46.7 fold | 10.5 ratio | 1 fold | 0.8 fold | 40200 MFI | 567 MFI | 5980 MFI
variant CD80 IgV-Fc M47V (Fc fusion, not shown: small tags and cut ends; a dimerising Fc or GST) VIHVTKEVKEVATLSCGHNVSVEELAQTRIYWQKEKKMVLTMMSGDVNIWPEYKNRTIFDITNNLSIVILALRPSDEGTYECVVLKYEKDAFKREHLAEVTLSVKAD | 18.1 fold | 33.7 ratio | 0.8 fold | 0.1 fold | 33300 MFI | 68.7 MFI | 2320 MFI
variant CD80 IgV-Fc E35D/N48K (Fc fusion, not shown: small tags and cut ends; a dimerising Fc or GST) VIHVTKEVKEVATLSCGHNVSVEELAQTRIYWQKDKKMVLTMMSGDMKIWPEYKNRTIFDITNNLSIVILALRPSDEGTYECVVLKYEKDAFKREHLAEVTLSVKAD | 51.1 fold | 33.7 ratio | 1 fold | 0.3 fold | 41300 MFI | 194 MFI | 6540 MFI
variant CD80 IgV-Fc E35D/M47L/V68M (Fc fusion, not shown: small tags and cut ends; a dimerising Fc or GST) VIHVTKEVKEVATLSCGHNVSVEELAQTRIYWQKDKKMVLTMMSGDLNIWPEYKNRTIFDITNNLSIMILALRPSDEGTYECVVLKYEKDAFKREHLAEVTLSVKAD | 218 fold | 22.4 ratio | 0.7 fold | 1.8 fold | 28600 MFI | 1240 MFI | 27900 MFI
variant CD80 IgV-Fc E35D (Fc fusion, not shown: small tags and cut ends; a dimerising Fc or GST) VIHVTKEVKEVATLSCGHNVSVEELAQTRIYWQKDKKMVLTMMSGDMNIWPEYKNRTIFDITNNLSIVILALRPSDEGTYECVVLKYEKDAFKREHLAEVTLSVKAD | 20.2 fold | 19.3 ratio | 1.1 fold | 0.2 fold | 42900 MFI | 134 MFI | 2580 MFI
variant CD80 IgV-Fc D46V/M47L/V68M (Fc fusion, not shown: small tags and cut ends; a dimerising Fc or GST) VIHVTKEVKEVATLSCGHNVSVEELAQTRIYWQKEKKMVLTMMSGVLNIWPEYKNRTIFDITNNLSIMILALRPSDEGTYECVVLKYEKDAFKREHLAEVTLSVKAD | 219 fold | 12.8 ratio | 0.9 fold | 3.1 fold | 34700 MFI | 2180 MFI | 28000 MFI
variant CD80 IgV-Fc E35D/K89N (Fc fusion, not shown: small tags and cut ends; a dimerising Fc or GST) VIHVTKEVKEVATLSCGHNVSVEELAQTRIYWQKDKKMVLTMMSGDMNIWPEYKNRTIFDITNNLSIVILALRPSDEGTYECVVLKYENDAFKREHLAEVTLSVKAD | 5.9 fold | 3.2 ratio | 0.5 fold | 0.3 fold | 21800 MFI | 236 MFI | 757 MFI
variant CD80 IgV-Fc E35D/D46V/L85Q (Fc fusion, not shown: small tags and cut ends; a dimerising Fc or GST) VIHVTKEVKEVATLSCGHNVSVEELAQTRIYWQKDKKMVLTMMSGVMNIWPEYKNRTIFDITNNLSIVILALRPSDEGTYECVVQKYEKDAFKREHLAEVTLSVKAD | 31.6 fold | 20.6 ratio | 1.2 fold | 0.3 fold | 48000 MFI | 196 MFI | 4040 MFI
variant CD80 IgV-Fc D46V/V68M (Fc fusion, not shown: small tags and cut ends; a dimerising Fc or GST) VIHVTKEVKEVATLSCGHNVSVEELAQTRIYWQKEKKMVLTMMSGVMNIWPEYKNRTIFDITNNLSIMILALRPSDEGTYECVVLKYEKDAFKREHLAEVTLSVKAD | 17.7 fold | 4.1 ratio | 0.1 fold | 0.8 fold | 5330 MFI | 556 MFI | 2270 MFI
